Test results as given in doi:10.1101/2024.04.05.588253v1.

B1: ssnBVMO (Tepidiforma thermophila) (protein)
chain: MTSNAPQSFDSIIVGAGFAGLYQLIRLRRAGFSARVIEAGDNVGGTWYWNRYPGARCDIESLQYQYAFDPGLAKEWRWTERYATQPEILRYIEFVADRYDLRRDIQFSTRVTAAHYDEAAARWTVHTDRGDLYSCRYLVMATGCLSVPKTPEVPGIETFEGESYHTGAWPHEGVDFTGKRVAVIGTGSSAIQSIPIIARQAAHLTVFQRTPNFSVPAHNYFLDEEQWRAAAERIAELRAEARTTSAGITGLPLNDVSALAVSEEERRREYERRWAMGGFAIGGAFNDIAINPDANETAAEFVRQKIREIVQDPETAEALCPRDYPFGTKRLCVDIAYYETFNRPNVKLVSIRDNPIAAITPKGVRLENGDEYEFDAIVYATGFDAMTGALLRIDIRGRDGLTLREKWEHGPRTYLGIQVAGFPNMFTITGPGSPSVLSNMIVSIEQHVDWVTDCLEYLRERDLATIEASPAAEDAWVNHVNEVANLTLYPRANSWYIGANVPGKPRVFMPYVGGVGAYAQKCAEVAANGYEGFILQPEPAALSR
B2: PTDH-L1-ssnBVMO (Tepidiforma thermophila) (protein)
chain: B1 chain

How the values were obtained:
Assay in all cases: purified protein
Settings in all cases: 0.1 mM NADPH, 100 mM Tris pH 7.5, 50 °C, 2% p-dioxane
purified protein [1] = substrate: CC(=O)c1cccc(O)c1; format: biochemical, Tepidiforma thermophila
purified protein [2] = substrate: CC(=O)c1ccc(O)cc1; format: biochemical, Tepidiforma thermophila
purified protein [3] = substrate: CCCCCC(C)=O
purified protein [4] = substrate: CCC(=O)c1ccccc1
purified protein [5] = substrate: CCCCCCC(C)=O
purified protein [6] = substrate: CC(=O)c1ccccc1
purified protein [7] = substrate: CC(=O)CCc1ccccc1

| Protein | Km (purified protein [1]) [µM] | kcat (purified protein [1]) [s⁻¹] | Km (purified protein [2]) [µM] | kcat (purified protein [2]) [s⁻¹] | Km (purified protein [3]) [µM] | kcat (purified protein [3]) [s⁻¹] | Km (purified protein [4]) [µM] | kcat (purified protein [4]) [s⁻¹] | Km (purified protein [5]) [µM] | kcat (purified protein [5]) [s⁻¹] | Km (purified protein [6]) [µM] | kcat (purified protein [6]) [s⁻¹] | Km (purified protein [7]) [µM] | kcat (purified protein [7]) [s⁻¹] |
| --- | --- | --- | --- | --- | --- | --- | --- | --- | --- | --- | --- | --- | --- | --- |
| B1 | 2500 ± 2000 | 0.127 ± 0.038 | 1280 ± 180 | 0.455 ± 0.026 | 3.7 ± 1.5 | 0.455 ± 0.038 | 373 ± 39 | 0.152 ± 0.003 | 20.1 ± 9.6 | 0.671 ± 0.076 | 2520 ± 610 | 0.335 ± 0.018 | 22 ± 12 | 0.76 ± 0.10 |
| B2 | 1590 ± 270 | 0.120 ± 0.023 | 760 ± 120 | 0.301 ± 0.061 | 6.3 ± 3.1 | 0.61 ± 0.11 | 700 ± 140 | 0.371 ± 0.057 | 25.7 ± 2.5 | 0.536 ± 0.078 | 3600 ± 790 | 0.459 ± 0.081 | – | – |
